One assay deals with CD8+ and CD4+ T cells. Description: Endogenous autologous normal donor restimulation assay (Ad5-transduced dendritic cells plus autologous Pan-T cells). Particulars: Table 27, restimulation with overlapping 15-mer peptide pools, highest frequency across sixteen normal donors. It counts as cell-based, human. How it is done:
(5% CO2). The following day, DC cells were counted and plated in a 96 well round bottom microplate at a concentration of 30,000 viable cells per well. […] (5% CO2). […] Autologous CD3+ Pan-T cells isolated from human normal PBMCs were thawed using media.
Plates were incubated at 37° C. […] (5% CO2).
The cells were washed with PBS and stained with Live/Dead Fixable Aqua Dead Cell stain (Thermo-Fisher).

In a further assay the target is HLA-A*02:01 (Homo sapiens, UniProt P04439, D140Y/D185E/D98H/E176V/E277Q/G131W/G231S/I119V/I121R/I166T/I218V/L300P/L318F/N151K/N90K/P208A/P217A/Q86G/Q94H/R138H/R169H/T345S). Put plainly: In vitro binding of neoantigens to class I MHC (UV peptide exchange, HLA class I ELISA). Conditions: 100% = same binding affinity as positive control peptide. The procedure:
(§1) In Vitro Binding of Neoantigens to Class I MHC
(§2) The 9 mer peptides identified by bioinformatics analysis were analyzed for their binding propensities to 6 common HLA class I alleles (HLA-A*01:01, A*02:01, A*03:01, A*24:02, B*07:02, B*08:01). The principle of the method is briefly described below and consists of two parts, one involving exchange of peptide with a positive control induced by Ultraviolet (UV) radiation, and the second is an enzyme immunoassay to detect stable HLA-peptide and empty HLA complexes.
(§3) HLA-bound peptides are critical for the stability of the HLA complex.
(§4) The exchange efficiency between the peptide of interest and Pos was analyzed using an HLA class I ELISA. The combined technologies allowed the identification of ligands for an HLA molecule of interest which are potentially immunogenic.
(§5) The UV control represented UV-irradiation of conditional HLA class I complex in the absence of a rescue peptide. […] To this end streptavidin was bound onto polystyrene microtiter wells. After washing and blocking, HLA complex present in exchange reaction mixtures or ELISA controls was captured by the streptavidin on the microtiter plate via its biotinylated heavy chain. Non-bound material was removed by washing. Subsequently, horseradish peroxidase (HRP)-conjugated antibody to human B2M was added. […] In the latter case B2M was removed during the washing step. After removal of non-bound HRP conjugate by washing, a substrate solution was added to the wells. A coloured product formed in proportion to the amount of intact HLA complex present in the samples. After the reaction was terminated by the addition of a stop solution, absorbance was measured in a microtiter plate reader. […] Suboptimal HLA binding of peptides with a moderate to low affinity for HLA class I molecules can also be detected by this ELISA technique (Rodenko, B et al. (2006) Nature Protocols 1: 1120-32).
(§6) Binding of select neoepitopes to HLA-A*01:01, HLA-A* 02:01, HLA-A* 03:01, HLA-A*24:02, HLA-1B*07:02 and HLA-1B*08:01 was evaluated using the assay described in Example 1. […] As a criterion for further evaluation, peptides with an exchange rate of at least 10% with the corresponding Pos peptide for at least one of the 6 HLA alleles that we considered for further evaluation. […] Higher percentages correspond to stronger binding to the HLA allele.

In a further assay the target is HLA-B*07:02 (Homo sapiens, UniProt P01889). The description is as above. Particulars: 100% = same binding affinity as positive control peptide. The procedure:
as §1, §2, §3, §4, §5, §6

In a further assay the target is HLA-A*03:01 (Homo sapiens, UniProt P04439). Described as above. Particulars: 100% = same binding affinity as positive control peptide. How it is done:
as §1, §2, §3, §4, §5, §6

Another assay addresses HLA-A*01:01 (Homo sapiens, UniProt P04439, A114D/A174V/A182V/D101N/D185E/E176A/E190D/L180R/Q94H/R68K/S129P/T187R/V100A/V91M/W191G). The assay is described as above. Particulars: 100% = same binding affinity as positive control peptide. The procedure: as §1, §2, §3, §4, §5, §6
The target in another assay is HLA-A*24:02 (Homo sapiens, UniProt P04439, D101N/D140Y/D185E/E176V/E190D/F33S/G103R/G107R/I119L/I121M/I306V/K335N/L105A/L180Q/L300P/N151K/N90K/Q86E/Q94H/R106L/R138H/R89G/T104I/T345S/V100E/W191G/Y123F). The assay is described as above. Conditions: 100% = same binding affinity as positive control peptide. How it is done:
as §1, §2, §3, §4, §5, §6

The subject of assay [1] is CD8+ T cells in PBMCs from patients with metastatic castrate-resistant prostate cancer. Description: Patient PBMC restimulation assay (in vitro immunogenicity of neoantigens). It counts as cell-based, human. Also on record: Maximum frequency of TNFα+IFNγ+CD8+ T cells: unit not given here. Conditions: for Maximum fold change over: fold change over negative control, highest across the PBMC donors evaluated, 9 mer peptide; for Maximum frequency of TNFα+IFNγ+CD8+ T cells: greatest frequency among all tested PBMC donors, negative control 0.011-0.8. How it is done:
In Vitro Immunogenicity Assessment of Neoantigens (“Patient PBMC Restimulation Assay”)
PBMCs from human patients with metastatic castrate-resistant prostate cancer were thawed using media (RPMI 1640 supplemented with Glutamax, 10% HI FBS, and 1× Sodium Pyruvate). Cells were counted and plated in a 96 well round bottom microplate at a concentration of 250,000 viable cells per well. Lyophilized peptides were solubilized in 100% DMSO and diluted in media to 10 μg/mL. Neoantigen peptides were added in equal volume to PBMCs for a final concentration of 5 μg/mL. CEF Peptide Pool “Plus” (Cellular Technologies, Ltd.) was utilized as a positive control and DMSO at the same final concentration as the experimental peptides was utilized as a negative control. Human IL-15 (Peprotech) was added to all wells at final concentration of 10 ng/mL.
Plates were incubated at 37° C. (5% CO2) for a total of 13 days. Media was refreshed every 2 days with IL-15 (10 ng/mL final concentration) and IL-2 (R&D systems, 10 IU/mL final concentration). On day 12, PBMCs were re-stimulated with identical experimental peptides or controls, at same concentration as peptide stimulation on Day 1. After 1-hour incubation, protein Inhibitor Cocktail (eBioscience) was added to every well and plate was incubated overnight.
On day 13, cells were stained for intracellular flow cytometry analysis. The cells were washed with PBS and stained with Live/Dead Fixable Aqua Dead Cell stain (Thermo-Fisher). Following the live/dead stain, cells were blocked using Biotin-Free Fe Receptor Blocker (Accurate Chemical & Scientific Corp). Extracellular cellular flow panel (1 μL/antibody per well in 50 μL) consisted of CD3 PerCP-Cy5.5 (Biolegend), CD4 BV421 (Biolegend), and CD8 APC-Cy7 (Biolegend). After extracellular staining, cells were fixed using Foxp3/Transcription Factor Staining Buffer Set (eBioscience) and stained for intracellular proteins (1:50 dilution) using TNFα FITC (R&D Systems) and IFNγ BV785 (Biolegend). Cells were washed and resuspended in stain buffer and analyzed using a BD Celesta flow cytometer.
Flow cytometry cell staining analysis was completed using FlowJo v10. Cells were gated on live, singlet, CD3+ cells. The CD8+ T cells were analyzed for TNFα/IFNγ expression and the frequency of double positive TNFα/IFNγ CD8+ T cells was recorded. Responses were assessed to be positive when the frequency of double positive TNFα/IFNγ CD8+ T cells due to stimulation with an experimental peptide was increased greater than or equal to 2-fold over the DMSO only negative control for that patient. Peptides were analyzed in 1 to 7 patient samples.
The 9 mer fragments shown in Table 13 were assessed for their ability to activate T cells using the Patient PBMC restimulation assay described in Example 1 using TNFα and IFNγ production by CD8^+ T cells as a readout. Self-antigens shown in Table 15 were also used in the assays. […] PBMCs from ten patients were evaluated.

The source of these data is patent US12582683B2, “Prostate neoantigens and their uses” (Jansen Biotech, Inc., priority 2019, dated 2026).

For “DGHSYTSKVNCLLLQDGFHGCVSITGAAGRRNLSIFLFLMLCKLEFHAC (listed as Homo sapiens) [AS55, splice variant SPOCK1]”, the “Maximum Frequency of TNFα/IFNγ Double Positive CD4+30 T cells” value in the assay with CD8+ and CD4+ T cells was found to be 0.063.
“SLYHREKQLIAMDSAI (listed as Homo sapiens) [Neoantigen P22, 5LC45A3-ELK4]”: the “Exchange rate with Pos peptide, HLA-A*02:01” value (“Exchange rate … HLA-A*02:01” for short) with HLA-A*02:01 was 46.9%. Besides, the “Exchange rate with Pos peptide, HLA-B*07:02” value (“Exchange rate … HLA-B*07:02” for short) in the assay with HLA-B*07:02 is 8.3%. In addition, in the assay with HLA-A*03:01, the “Exchange rate with Pos peptide, HLA-A*03:01” value (“Exchange rate … HLA-A*03:01” for short) was 4.8%. Moreover, the “Exchange rate with Pos peptide, HLA-A*01:01” value (“Exchange rate … HLA-A*01:01” for short) with HLA-A*01:01 turned out to be 4.4%. For the same molecule, the “Exchange rate with Pos peptide, HLA-A*24:02” value (“Exchange rate … HLA-A*24:02” for short) in the assay with HLA-A*24:02 amounted to 0%. Further, in assay [1], the “Maximum fold change over” value is reported as 5.00 and the “Maximum frequency of TNFα+IFNγ+CD8+ T cells” value came out at 0.120.
As to “VQPIARELYQFTFDLLI (listed as Homo sapiens) [Neoantigen P48, AR.p.H875Y]”, the “Exchange rate … HLA-A*02:01” value with HLA-A*02:01 is 99.3%. In addition, the “Exchange rate … HLA-B*07:02” value in the assay with HLA-B*07:02 came out at 12.8%. Also, the “Exchange rate … HLA-A*03:01” value with HLA-A*03:01 is 4.4%. Moreover, the “Exchange rate … HLA-A*01:01” value in the assay with HLA-A*01:01 was determined as 4.3%. In addition, the “Exchange rate … HLA-A*24:02” value with HLA-A*24:02 is reported as 0.1%. Also, in assay [1], the “Maximum fold change over” value amounted to 2.33 and the “Maximum frequency of TNFα+IFNγ+CD8+ T cells” value is given as 0.220.
As to “WKFEMSYTVGGPPPHVHARPRHWKTDR (listed as Homo sapiens) [AS18, splice variant NWD1]”, in the assay on CD8+ and CD4+ T cells, the “Maximum Frequency of TNFα/IFNγ Double Positive CD4+30 T cells” value worked out at 0.046.
On to “YEAGMTLGEKFRVGNCKHLKMTRP (listed as Homo sapiens) [Neoantigen P82, AR-V7]”, for which, in the assay with HLA-A*02:01, the “Exchange rate … HLA-A*02:01” value worked out at 6.3%. Further, the “Exchange rate … HLA-B*07:02” value in the assay with HLA-B*07:02 came out at 12.9%. Besides, in the assay with HLA-A*03:01, the “Exchange rate … HLA-A*03:01” value was 58.1%. For the same molecule, the “Exchange rate … HLA-A*01:01” value with HLA-A*01:01 came out at 1.5%. Moreover, in the assay with HLA-A*24:02, the “Exchange rate … HLA-A*24:02” value is −0.1%. In assay [1], the “Maximum fold change over” value was determined as 3.46 and the “Maximum frequency of TNFα+IFNγ+CD8+ T cells” value came out at 0.970.
Turning to “YEAGMTLGGKILFFLFLLLPLSPFSLIF (listed as Homo sapiens) [Neoantigen P87, AR-Intron]”, the “Maximum Frequency of TNFα/IFNγ Double Positive CD4+30 T cells” value with CD8+ and CD4+ T cells amounted to 0.079. The “Exchange rate … HLA-A*02:01” value with HLA-A*02:01 is 64%. The “Exchange rate … HLA-B*07:02” value in the assay with HLA-B*07:02 is on record as 5%. In addition, the “Exchange rate … HLA-A*03:01” value with HLA-A*03:01 stood at 2.4%. The “Exchange rate … HLA-A*01:01” value with HLA-A*01:01 came to 1.1%. Moreover, the “Exchange rate … HLA-A*24:02” value with HLA-A*24:02 worked out at 0.2%. Further, in assay [1], the “Maximum fold change over” value was determined as 3.24 and the “Maximum frequency of TNFα+IFNγ+CD8+ T cells” value is reported as 0.120.

B1: VFFKRAAEGFFRMNKLKESSDTNPKPYCMAAPMGLTENNRNRKKSYRETNLKAVSWPLNHT [P76] (peptide, listed as Homo sapiens)
chain: VFFKRAAEGFFRMNKLKESSDTNPKPYCMAAPMGLTENNRNRKKSYRETNLKAVSWPLNHT
notes: AR-V3
Consider B1, for which the “Exchange rate … HLA-A*02:01” value in the assay with HLA-A*02:01 was 85.9%. Also, the “Exchange rate … HLA-B*07:02” value with HLA-B*07:02 was determined as 91.5%. In addition, in the assay with HLA-A*03:01, the “Exchange rate … HLA-A*03:01” value was found to be 6%. In addition, the “Exchange rate … HLA-A*01:01” value in the assay with HLA-A*01:01 was 0.1%. Moreover, the “Exchange rate … HLA-A*24:02” value with HLA-A*24:02 is −0.5%. Besides, in assay [1], the “Maximum fold change over” value was 2.30 and the “Maximum frequency of TNFα+IFNγ+CD8+ T cells” value turned out to be 0.170. For the same molecule, the Immunogenic result in assay [1] (patient PBMC restimulation, CD8+ T cells) is reported as “Yes”.

B2: WTPIPVLTRWPLPHPPPWRRATSCRMARSSPSATSGSSVRRRCSSLPSWVWNLAASTRPRSTPS (peptide, listed as Homo sapiens)
chain: WTPIPVLTRWPLPHPPPWRRATSCRMARSSPSATSGSSVRRRCSSLPSWVWNLAASTRPRSTPS
notes: TMEM222-LOC644961
As to B2, in the assay with HLA-A*02:01, the “Exchange rate … HLA-A*02:01” value was found to be 8.2%. In the assay with HLA-B*07:02, the “Exchange rate … HLA-B*07:02” value was 91.3%. The “Exchange rate … HLA-A*03:01” value with HLA-A*03:01 turned out to be 4.1%. For the same molecule, the “Exchange rate … HLA-A*01:01” value with HLA-A*01:01 amounted to 5.2%. Further, the “Exchange rate … HLA-A*24:02” value in the assay with HLA-A*24:02 amounted to 0.1%. Moreover, in assay [1], the “Maximum fold change over” value was 5.00 and the “Maximum frequency of TNFα+IFNγ+CD8+ T cells” value turned out to be 0.480.
